{
  "source": "patent US7931890B2",
  "about": "“Targeted combination immunotherapy of cancer and infectious diseases” (Immunomedics, Inc., priority 1996, dated 2011)",
  "origin": "cited, not measured here",
  "key": {"[1]": {"target": "streptavidin (Streptomyces avidinii, UniProt P22629)", "sequence (P22629 25-183)": "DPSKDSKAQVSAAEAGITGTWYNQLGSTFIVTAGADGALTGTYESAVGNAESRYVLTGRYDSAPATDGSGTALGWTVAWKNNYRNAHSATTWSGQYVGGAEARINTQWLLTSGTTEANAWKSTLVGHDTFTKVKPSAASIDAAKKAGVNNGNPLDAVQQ", "conditions": "streptavidin-biotin system; Rosebrough 1993; cited from earlier work"}, "[2]": {"target": "T1, CEA (Homo sapiens, UniProt P06731)", "T1 sequence (P06731 35-676)": "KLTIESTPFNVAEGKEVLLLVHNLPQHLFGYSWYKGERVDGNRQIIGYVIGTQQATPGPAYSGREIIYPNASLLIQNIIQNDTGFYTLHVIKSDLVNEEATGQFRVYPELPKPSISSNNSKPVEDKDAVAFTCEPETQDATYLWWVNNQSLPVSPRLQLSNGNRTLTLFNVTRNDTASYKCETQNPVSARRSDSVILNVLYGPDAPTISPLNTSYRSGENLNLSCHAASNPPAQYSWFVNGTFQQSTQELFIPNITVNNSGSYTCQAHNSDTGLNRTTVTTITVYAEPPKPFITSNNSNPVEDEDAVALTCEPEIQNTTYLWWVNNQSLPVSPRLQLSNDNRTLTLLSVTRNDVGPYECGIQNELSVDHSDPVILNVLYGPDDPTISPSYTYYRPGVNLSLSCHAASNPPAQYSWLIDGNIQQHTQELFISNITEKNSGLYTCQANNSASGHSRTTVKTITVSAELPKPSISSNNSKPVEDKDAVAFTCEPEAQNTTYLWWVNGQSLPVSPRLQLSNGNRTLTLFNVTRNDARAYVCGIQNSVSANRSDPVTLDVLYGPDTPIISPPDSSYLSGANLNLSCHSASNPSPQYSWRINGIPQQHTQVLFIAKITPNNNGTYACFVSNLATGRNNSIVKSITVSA", "conditions": "Hansen et al. 1993; cited from earlier work"}, "[3]": {"conditions": "Rosebrough 1993; cited from earlier work"}},
  "data": [
    {"compound": "O=C(O)CCCC[C@@H]1SC[C@@H]2NC(=O)N[C@@H]21", "note": "[biotin]", "values": [
      {"measurement": "Ka", "setting": "[1]", "result": "10^15 M^−1"}
    ]},
    {"compound": "MN-14: second generation CEA-antibody", "values": [
      {"measurement": "affinity for CEA relative to first generation NP-4", "setting": "[2]", "result": "ten times more affinity"}
    ]},
    {"compound": "avidin: biotin-binding protein found in egg whites", "values": [
      {"measurement": "pI", "setting": "[3]", "result": "> 10"}
    ]}
  ]
}
